Test results reported in patent US20120316071A1 (published 2012).

T1: rHuman Erythropoietin R/Fc Chimera, CF (R&D Systems Cat#963-ER) (human, UniProt P19235 25-250)
T1 construct: Bought recombinant protein; also called EPO R; Epo R; Fc part of the bought chimera not given
T1 sequence (looked up): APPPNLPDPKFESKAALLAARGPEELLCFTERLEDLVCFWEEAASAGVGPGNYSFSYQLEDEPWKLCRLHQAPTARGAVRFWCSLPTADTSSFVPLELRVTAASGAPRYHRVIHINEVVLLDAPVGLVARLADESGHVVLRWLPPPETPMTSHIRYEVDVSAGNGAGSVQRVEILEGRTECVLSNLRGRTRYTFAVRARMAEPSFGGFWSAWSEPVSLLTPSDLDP

T2: rHuman Erythropoietin R/Fc Chimera, CF (R&D Systems Cat#963-ER) (human, UniProt P19235 25-250)
T2 construct: Bought reagent; also called EPO R; EPO R/Fc; Fc part of the bought chimera not given
T2 sequence (looked up): T1 sequence (looked up)

B1: Fab VH3-23_IGHD2-21*01>3_IGHJ6*01 H100E/S108P/Y113G Y110I & V2-13_IGLJ2*01 (Fab, V domains shown)
VH: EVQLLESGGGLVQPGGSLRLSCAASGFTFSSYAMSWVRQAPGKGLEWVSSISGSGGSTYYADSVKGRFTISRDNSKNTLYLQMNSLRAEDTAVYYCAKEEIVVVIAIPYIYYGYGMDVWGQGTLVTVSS
VL: SSELTQDPAVSVALGQTVRITCQGDSLRSYYASWYQQKPGQAPVLVIYGKNNRPSGIPDRFSGSSSGNTASLTITGAQAEDEADYYCNSRDSSGNHLVVFGGGTKLTVL
notes: Tested as Fab made in E. coli: VH joined to CH1 (His and Flag tags), VL joined to lambda CL; also called EPG Y110I
B2: Fab VH3-23_IGHD2-21*01>3_IGHJ6*01 H100E/S108P/Y113G Y114I & V2-13_IGLJ2*01 (Fab, V domains shown)
VH: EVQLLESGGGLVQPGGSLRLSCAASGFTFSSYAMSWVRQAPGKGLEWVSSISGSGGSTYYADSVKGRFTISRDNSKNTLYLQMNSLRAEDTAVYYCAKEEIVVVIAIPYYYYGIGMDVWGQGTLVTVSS
VL: B1 VL
notes: Tested as Fab made in E. coli (VH-CH1 with His and Flag tags; lambda CL); also called EPG Y114I
B3: Fab VH3-23_IGHD2-21*01>3_IGHJ6*01 H100E/S108P/Y113G Y114N & V2-13_IGLJ2*01 (Fab, V domains shown)
VH: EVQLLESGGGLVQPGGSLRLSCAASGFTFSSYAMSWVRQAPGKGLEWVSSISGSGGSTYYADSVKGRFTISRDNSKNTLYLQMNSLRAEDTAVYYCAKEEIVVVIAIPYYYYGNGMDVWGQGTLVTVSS
VL: B1 VL
notes: Tested as Fab made in E. coli (VH-CH1 with His and Flag tags; lambda CL); also called EPG Y114N
B4: Fab VH3-23_IGHD2-21*01>3_IGHJ6*01 H100E/S108P/Y113G/Y111W & V2-13_IGLJ2*01 (Fab, V domains shown)
VH: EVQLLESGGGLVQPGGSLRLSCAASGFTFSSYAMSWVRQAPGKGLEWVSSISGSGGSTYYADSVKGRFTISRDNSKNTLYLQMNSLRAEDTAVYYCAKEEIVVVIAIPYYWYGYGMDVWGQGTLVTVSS
VL: B1 VL
notes: Fab made in E. coli: VH joined to CH1 (with His and Flag tags, plasmid A) and VL to lambda CL (plasmid E); also called EPG Y111W
B5: Fab VH3-23_IGHD2-21*01>3_IGHJ6*01 H100E/S108P/Y113G Y112G & V2-13_IGLJ2*01 (Fab, V domains shown)
VH: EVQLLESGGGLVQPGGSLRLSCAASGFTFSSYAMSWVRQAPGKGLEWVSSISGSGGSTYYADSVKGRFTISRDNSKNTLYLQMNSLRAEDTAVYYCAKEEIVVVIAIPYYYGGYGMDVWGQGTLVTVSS
VL: B1 VL
notes: Tested as Fab made in E. coli (VH-CH1 with His and Flag tags; lambda CL); also called EPG Y112G
B6: Fab VH3-23_IGHD2-21*01>3_IGHJ6*01 H100E/S108P/Y113G Y112R & V2-13_IGLJ2*01 (Fab, V domains shown)
VH: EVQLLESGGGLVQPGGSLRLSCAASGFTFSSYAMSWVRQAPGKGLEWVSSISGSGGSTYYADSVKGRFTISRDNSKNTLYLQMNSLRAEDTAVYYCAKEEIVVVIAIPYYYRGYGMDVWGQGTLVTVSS
VL: B1 VL
notes: Tested as Fab made in E. coli (VH-CH1 with His and Flag tags from plasmid A; lambda CL from plasmid E); also called EPG Y112R
B7: Fab VH3-23_IGHD2-21*01>3_IGHJ6*01 H100E/S108P/Y113G Y110T & V2-13_IGLJ2*01 (Fab, V domains shown)
VH: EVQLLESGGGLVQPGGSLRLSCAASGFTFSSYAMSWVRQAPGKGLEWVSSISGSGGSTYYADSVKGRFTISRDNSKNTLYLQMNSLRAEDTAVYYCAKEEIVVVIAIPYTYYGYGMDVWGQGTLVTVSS
VL: B1 VL
notes: Tested as Fab made in E. coli: VH joined to CH1 (His and Flag tags), VL joined to lambda CL; also called EPG Y110T
B8: Fab VH3-23_IGHD2-21*01>3_IGHJ6*01 H100E/S108P/Y113G Y110W & V2-13_IGLJ2*01 (Fab, V domains shown)
VH: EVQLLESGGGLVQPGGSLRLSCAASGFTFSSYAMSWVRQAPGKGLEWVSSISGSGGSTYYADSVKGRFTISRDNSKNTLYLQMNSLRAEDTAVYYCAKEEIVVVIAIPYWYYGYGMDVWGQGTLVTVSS
VL: B1 VL
notes: Tested as Fab made in E. coli: VH joined to CH1 (His and Flag tags), VL joined to lambda CL; also called EPG Y110W

Legend:
[1] = molecular target: T3, rHuman ErbB2/Fc Chimera, CF (R&D Systems Cat#1129-ER) (human, UniProt P04626 23-652); assay: ECL multispot (MSD) binding assay, antigens spotted on plate, 20 nM Fab;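 also: fab incubated 1 h at 20 °C on antigen-spotted wells, bound Fab detected by TAG-labelled antibody, ratio of 4 or more over blank counted as a hit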
T3 construct: Bought recombinant protein; also called human epidermal growth factor 2 receptor; Fc part of the bought chimera not given

[2] = molecular target: T4, rHuman IGF-1 sR, (IGF-1 sR), CF (R&D Systems Cat#391-GR) (human, UniProt P08069 31-932); assay: as above
T4 construct: Bought recombinant soluble receptor; The column head prints only 'IGF-1'; also called insulin-like growth factor-1 soluble receptor

[3] = molecular target: T1, rHuman Erythropoietin R/Fc Chimera, CF …; assay: as above
[4] = molecular target: T5, rHuman P-Cadherin/Fc Chimera, CF (R&D Systems Cat#861-PC) (human, UniProt P22223 108-654); assay: as above
T5 construct: Bought recombinant protein; Fc part of the bought chimera not given

[5] = molecular target: T6, rHuman EGF R/Fc Chimera, CF (R&D Systems Cat#344-ER) (human, UniProt P00533 25-645); assay: as above
T6 construct: Bought recombinant protein; also called epidermal growth factor receptor; Fc part of the bought chimera not given

[6] = molecular target: T7, Recombinant Human DLL4 (R&D Systems Cat#1506-D4/CF) (human, UniProt Q9NR61 27-524); assay: as above
T7 construct: Bought recombinant protein; also called delta-like protein 4; rHuman DLL4

[7] = molecular target: T8, rHuman CD44/Fc Chimera, CF (R&D Systems Cat#3660-CD) (human, UniProt P16070 21-220); assay: as above
T8 construct: Bought recombinant protein; Fc part of the bought chimera not given

[8] = molecular target: T9, rHuman IGF-1 sR, CF (R&D Systems Cat#391-GR) (human, UniProt P08069 31-932); assay: ECL (MSD) multispot binding assay, antigen spotted on plate, 20 nM Fab;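 also: purified Fab incubated 1 h at 20 °C on antigen-spotted plate, bound Fab revealed with TAG detection antibody, ECL read, antigen signal divided by same-well blank, ratio ≥4 counted as hit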
T9 construct: Bought soluble receptor; also called insulin-like growth factor-1 soluble receptor

[9] = molecular target: T10, rHuman EGF R/Fc Chimera, CF (R&D Systems Cat#344-ER) (human, UniProt P00533 25-645); assay: as above
T10 construct: Bought reagent; also called epidermal growth factor receptor; Fc part of the bought chimera not given

[10] = molecular target: T11, rHuman ErbB2/Fc Chimera, CF (R&D Systems Cat#1129-ER) (human, UniProt P04626 23-652); assay: as above
T11 construct: Bought reagent; also called human epidermal growth factor 2 receptor; Fc part of the bought chimera not given

[11] = molecular target: T12, rHuman CD44/Fc Chimera, CF (R&D Systems Cat#3660-CD) (human, UniProt P16070 21-220); assay: as above
T12 construct: Bought reagent; Fc part of the bought chimera not given

[12] = molecular target: T13, Recombinant Human DLL4 (R&D Systems Cat#1506-D4/CF) (human, UniProt Q9NR61 27-524); assay: as above
T13 construct: Bought recombinant protein; also called delta-like protein 4; rHuman DLL4

[13] = molecular target: T2, rHuman Erythropoietin R/Fc Chimera, CF …; assay: as above
[14] = molecular target: T14, rHuman Notch-1/Fc Chimera, CF (R&D Systems Cat#3647-TK) (human, UniProt P46531 19-526); assay: as above
T14 construct: Bought reagent; Fc part of the bought chimera not given

[15] = molecular target: T15, rHuman P-Cadherin/Fc Chimera, CF (R&D Systems Cat#861-PC) (human, UniProt P22223 108-654); assay: as above
T15 construct: Bought reagent; Fc part of the bought chimera not given

[16] = molecular target: T16, rHuman P-Cadherin/Fc Chimera, CF (R&D Systems Cat#861-PC) (human, UniProt P22223 108-654); assay: as above
T16 construct: Bought recombinant protein; Fc part of the bought chimera not given

[17] = molecular target: T17, rHuman IGF-1 sR, (IGF-1 sR), CF (R&D Systems Cat#391-GR) (human, UniProt P08069 31-932); assay: as above
T17 construct: Bought recombinant soluble receptor; also called insulin-like growth factor-1 soluble receptor

[18] = molecular target: T18, Recombinant Human DLL4 (R&D Systems Cat#1506-D4/CF) (human, UniProt Q9NR61 27-524); assay: as above; remark: listed apart in the source
T18 construct: Bought recombinant protein; also called delta-like protein 4; rHuman DLL4

[19] = molecular target: T19, rHuman ErbB2/Fc Chimera, CF (R&D Systems Cat#1129-ER) (human, UniProt P04626 23-652); assay: as above
T19 construct: Bought recombinant protein; also called human epidermal growth factor 2 receptor; Fc part of the bought chimera not given

[20] = molecular target: T20, rHuman EGF R/Fc Chimera, CF (R&D Systems Cat#344-ER) (human, UniProt P00533 25-645); assay: as above
T20 construct: Bought recombinant protein; also called epidermal growth factor receptor; Fc part of the bought chimera not given

Binder | ECL multispot signal (ratio to blank; column not labelled) [1] | ECL multispot signal (ratio to blank; column not labelled) [4] | ECL multispot signal (ratio to blank; column not labelled) [5] | ECL multispot value [8] | ECL multispot value [9] | ECL multispot value [10] | ECL multispot value [11] | ECL multispot value [12] | ECL multispot value [13] | ECL multispot value [14] | ECL multispot value [15] | other results
B1 | 11.4 | 39 | 8.6 |  |  |  |  |  |  |  |  | ECL multispot signal (ratio to blank; column not labelled) [2]: 1.4; ECL multispot signal (ratio to blank; column not labelled) [3]: 73.7; ECL multispot signal (ratio to blank; column not labelled) [6]: 2; ECL multispot signal (ratio to blank; column not labelled) [7]: 1.7
B2 |  |  |  | 1.4 | 7.1 | 11.4 | 1.8 | 2.4 | 162 | 2.6 | 22.6 | 
B3 |  |  |  | 1.2 | 2.6 |  | 1.2 | 1.6 | 35 | 2 | 5.9 | 
B4 |  |  |  |  |  |  |  |  |  |  |  | ECL signal/blank ratio [16]: 49.2; ECL signal/blank ratio [17]: 1.4; ECL signal/blank ratio [18]: 2.8; ECL signal/blank ratio [19]: 26.5; ECL signal/blank ratio [20]: 16.3
B5 |  |  |  | 1 | 1.7 | 1.4 | 1.2 | 1.3 | 7.9 | 2.1 | 2.3 | 
B6 |  |  |  | 1.5 |  | 5.9 | 1.6 | 2.6 | 85.1 | 2.7 | 30 | 
B7 | 0.8 | 1 | 1.8 |  |  |  |  |  |  |  |  | ECL multispot signal (ratio to blank; column not labelled) [2]: 1.8; ECL multispot signal (ratio to blank; column not labelled) [6]: 1.8; ECL multispot signal (ratio to blank; column not labelled) [7]: 1.6
B8 | 16.5 | 38.8 | 7.6 |  |  |  |  |  |  |  |  | ECL multispot signal (ratio to blank; column not labelled) [3]: 117
